This note sets out measurements from publication PMC12416549 (2024).

The target of this experiment is T1, TNFR1 (Homo sapiens, UniProt P19438).
T1 chain: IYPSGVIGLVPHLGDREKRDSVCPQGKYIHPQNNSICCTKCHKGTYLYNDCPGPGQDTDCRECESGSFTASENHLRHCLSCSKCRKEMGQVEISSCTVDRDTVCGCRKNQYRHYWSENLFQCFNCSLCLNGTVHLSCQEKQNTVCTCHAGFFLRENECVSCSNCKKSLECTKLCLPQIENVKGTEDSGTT
Nature of the experiment: yeast display SC50.

Numbering of substitutions follows the chain as printed. Names and notes keep the numbering of the source.

B1: E42V (designed binder)
chain: SMEEEVEKAAKEYEKKKKEAIEKHLEKLKAKDKEAAERFLKVLEEAAKEYAKDEAKTMSEEEAKRRAKKYKEKVLLSELSEEEQKEIKEAEEKLVRTILKYVEEAAK
In the case of B1, the “apparent Kd (screen)” value stood at 1160 pM.

B2: K27Q (designed binder)
chain: B1 chain with K27Q, V42E
As for B2, the “apparent Kd (screen)” value was 593 pM.

B3: V74N (designed binder)
chain: B1 chain with V42E, V74N
B3: the “apparent Kd (screen)” value stood at 16700 pM.

B4: K52R (designed binder)
chain: B1 chain with V42E, K52R
Regarding B4, the “apparent Kd (screen)” value is 490 pM.

B5: E81D (designed binder)
chain: B1 chain with V42E, E81D
For B5, the “apparent Kd (screen)” value amounted to 1690 pM.

B6: K15A (designed binder)
chain: B1 chain with K15A, V42E
Consider B6, for which the “apparent Kd (screen)” value was found to be 956 pM.

B7: T97L (designed binder)
chain: B1 chain with V42E, T97L
With B7, the “apparent Kd (screen)” value amounted to 1690 pM.

B8: Q84A (designed binder)
chain: B1 chain with V42E, Q84A
As to B8, the “apparent Kd (screen)” value amounted to 11400 pM.

B9: E72Y (designed binder)
chain: B1 chain with V42E, E72Y
Regarding B9, the “apparent Kd (screen)” value was 1400 pM.

B10: K88I (designed binder)
chain: B1 chain with V42E, K88I
Regarding B10, the “apparent Kd (screen)” value came out at 446 pM.

B11: M58I (designed binder)
chain: B1 chain with V42E, M58I
As for B11, the “apparent Kd (screen)” value came to 6430 pM.

B12: E54D (designed binder)
chain: B1 chain with V42E, E54D
Take B12: the “apparent Kd (screen)” value stood at 20200 pM.

B13: K11V (designed binder)
chain: B1 chain with K11V, V42E
With B13, the “apparent Kd (screen)” value is 593 pM.

B14: K27F (designed binder)
chain: B1 chain with K27F, V42E
For the molecule B14, the “apparent Kd (screen)” value turned out to be 490 pM.

B15: A10W (designed binder)
chain: B1 chain with A10W, V42E
Take B15: the “apparent Kd (screen)” value was found to be 3000 pM.

B16: E14N (designed binder)
chain: B1 chain with E14N, V42E
Consider B16, for which the “apparent Kd (screen)” value was found to be 5310 pM.

B17: E83K (designed binder)
chain: B1 chain with V42E, E83K
In the case of B17, the “apparent Kd (screen)” value was 593 pM.

B18: E62F (designed binder)
chain: B1 chain with V42E, E62F
Take B18: the “apparent Kd (screen)” value was found to be 446 pM.

B19: E14S (designed binder)
chain: B1 chain with E14S, V42E
As for B19, the “apparent Kd (screen)” value came to 7070 pM.

B20: L99R (designed binder)
chain: B1 chain with V42E, L99R
For B20, the “apparent Kd (screen)” value worked out at 12500 pM.

B21: E3I (designed binder)
chain: B1 chain with E3I, V42E
For the molecule B21, the “apparent Kd (screen)” value is 12500 pM.

B22: K8H (designed binder)
chain: B1 chain with K8H, V42E
For the molecule B22, the “apparent Kd (screen)” value was 956 pM.

B23: K69I (designed binder)
chain: B1 chain with V42E, K69I
B23: the “apparent Kd (screen)” value stood at 446 pM.

B24: K8W (designed binder)
chain: B1 chain with K8W, V42E
With B24, the “apparent Kd (screen)” value stood at 1540 pM.

B25: A47G (designed binder)
chain: B1 chain with V42E, A47G
For B25, the “apparent Kd (screen)” value worked out at 593 pM.

B26: Y101Q (designed binder)
chain: B1 chain with V42E, Y101Q
With B26, the “apparent Kd (screen)” value came to 1270 pM.

B27: K88C (designed binder)
chain: B1 chain with V42E, K88C
In the case of B27, the “apparent Kd (screen)” value was found to be 446 pM.

B28: E26R (designed binder)
chain: B1 chain with E26R, V42E
In the case of B28, the “apparent Kd (screen)” value was 593 pM.

B29: K17L (designed binder)
chain: B1 chain with K17L, V42E
Regarding B29, the “apparent Kd (screen)” value is 1690 pM.

B30: K31E (designed binder)
chain: B1 chain with K31E, V42E
For B30, the “apparent Kd (screen)” value was 1050 pM.

B31: K29L (designed binder)
chain: B1 chain with K29L, V42E
As to B31, the “apparent Kd (screen)” value was found to be 790 pM.

B32: A36M (designed binder)
chain: B1 chain with A36M, V42E
In the case of B32, the “apparent Kd (screen)” value came to 446 pM.

B33: E49K (designed binder)
chain: B1 chain with V42E, E49K
Consider B33, for which the “apparent Kd (screen)” value came out at 10400 pM.

B34: L40S (designed binder)
chain: B1 chain with L40S, V42E
Consider B34, for which the “apparent Kd (screen)” value was 446 pM.

B35: K8T (designed binder)
chain: B1 chain with K8T, V42E
B35: the “apparent Kd (screen)” value worked out at 1160 pM.

B36: E81L (designed binder)
chain: B1 chain with V42E, E81L
In the case of B36, the “apparent Kd (screen)” value was determined as 653 pM.

B37: E103S (designed binder)
chain: B1 chain with V42E, E103S
As to B37, the “apparent Kd (screen)” value is 490 pM.

B38: A20M (designed binder)
chain: B1 chain with A20M, V42E
B38: the “apparent Kd (screen)” value came out at 446 pM.

B39: M58W (designed binder)
chain: B1 chain with V42E, M58W
For the molecule B39, the “apparent Kd (screen)” value was 18300 pM.

B40: E104Y (designed binder)
chain: B1 chain with V42E, E104Y
Regarding B40, the “apparent Kd (screen)” value stood at 653 pM.

B41: K100R (designed binder)
chain: B1 chain with V42E, K100R
For B41, the “apparent Kd (screen)” value amounted to 1270 pM.

B42: E62S (designed binder)
chain: B1 chain with V42E, E62S
Regarding B42, the “apparent Kd (screen)” value was 490 pM.

B43: K41H (designed binder)
chain: B1 chain with K41H, V42E
Consider B43, for which the “apparent Kd (screen)” value is 593 pM.

B44: S80N (designed binder)
chain: B1 chain with V42E, S80N
As to B44, the “apparent Kd (screen)” value was determined as 2730 pM.

B45: A9E (designed binder)
chain: B1 chain with A9E, V42E
Take B45: the “apparent Kd (screen)” value came out at 446 pM.

B46: A51I (designed binder)
chain: B1 chain with V42E, A51I
Consider B46, for which the “apparent Kd (screen)” value worked out at 12500 pM.

B47: E45T (designed binder)
chain: B1 chain with V42E, E45T
With B47, the “apparent Kd (screen)” value is 2730 pM.

B48: T97D (designed binder)
chain: B1 chain with V42E, T97D
As to B48, the “apparent Kd (screen)” value is 446 pM.

B49: I98E (designed binder)
chain: B1 chain with V42E, I98E
Turning to B49, the “apparent Kd (screen)” value stood at 4390 pM.

B50: K16H (designed binder)
chain: B1 chain with K16H, V42E
In the case of B50, the “apparent Kd (screen)” value is 446 pM.

B51: A90K (designed binder)
chain: B1 chain with V42E, A90K
In the case of B51, the “apparent Kd (screen)” value worked out at 956 pM.

B52: A90W (designed binder)
chain: B1 chain with V42E, A90W
As to B52, the “apparent Kd (screen)” value turned out to be 490 pM.

B53: S77T (designed binder)
chain: B1 chain with V42E, S77T
For the molecule B53, the “apparent Kd (screen)” value came to 2250 pM.

B54: K88L (designed binder)
chain: B1 chain with V42E, K88L
As to B54, the “apparent Kd (screen)” value is 490 pM.

B55: I98R (designed binder)
chain: B1 chain with V42E, I98R
As for B55, the “apparent Kd (screen)” value is 1400 pM.
